{"source": "paper PMC6895282", "target": "TM52 (TetR-MphR hybrid regulator) (synthetic chimera of TetR and MphR; …, UniProt P04483 1-52+Q9EVJ6:56-194, internal_change)", "experiment": "EMSA", "data": [{"binder": "TM52 operator fragment (hybrid tet operator, 2-bp spacer) (dsDNA) DNA 1: GCGGTGATACTCCCTATCAGTTGATAGAGAGAGCACATCA DNA 2: TGATGTGCTCTCTCTATCAACTGATAGGGAGTATCACCGC", "values": [{"measurement": "binding result", "value": "binds"}]}]}
